Columns and labels:
[1] = target: T1, human Chi3l1 (chitinase 3-like-1) (human, UniProt P36222 22-383); assay: Western blot and ELISA, denaturing and non-denaturing conditions
T1 construct: also called YKL-40; recombinant (r) human Chi3l1

[2] = target: T2, mouse Chi3l1 (chitinase 3-like-1) (mouse, UniProt Q61362 30-389, limits assumed); assay: as above
T2 construct: Recombinant mouse Chi3l1; also called murine Chi3l1; Chil1 (printed 'Chill')
T2 sequence (Q61362 30-389 limits assumed): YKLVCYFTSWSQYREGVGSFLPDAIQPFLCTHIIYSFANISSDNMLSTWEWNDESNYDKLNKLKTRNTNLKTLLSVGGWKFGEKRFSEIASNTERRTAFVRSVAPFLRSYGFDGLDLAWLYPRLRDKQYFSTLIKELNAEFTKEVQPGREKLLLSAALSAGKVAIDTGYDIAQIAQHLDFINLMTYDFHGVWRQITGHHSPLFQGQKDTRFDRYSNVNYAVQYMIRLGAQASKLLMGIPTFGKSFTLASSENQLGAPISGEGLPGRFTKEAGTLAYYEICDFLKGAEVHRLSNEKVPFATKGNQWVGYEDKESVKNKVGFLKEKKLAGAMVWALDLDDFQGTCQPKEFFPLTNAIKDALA

T1 sequence (P36222 22-383 limits assumed): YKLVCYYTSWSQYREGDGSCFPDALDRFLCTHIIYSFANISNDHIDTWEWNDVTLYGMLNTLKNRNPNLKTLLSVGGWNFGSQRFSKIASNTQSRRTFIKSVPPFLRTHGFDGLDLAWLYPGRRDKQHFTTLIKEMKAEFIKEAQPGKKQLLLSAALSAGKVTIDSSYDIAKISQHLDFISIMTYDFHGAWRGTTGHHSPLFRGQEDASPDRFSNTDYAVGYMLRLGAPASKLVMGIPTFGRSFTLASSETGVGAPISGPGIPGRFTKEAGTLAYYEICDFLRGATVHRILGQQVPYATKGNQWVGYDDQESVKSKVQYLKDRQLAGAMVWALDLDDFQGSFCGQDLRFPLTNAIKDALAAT

binding result [1]: binds
binding result [2]: binds
B1: FRG monoclonal antibody (antibody, V domains shown)
VH: QIQLVQSGPELKKPGETVKISCKASGYTFTNYGMNWVKQAPGKGLKWMGWINTYTGEPTYADDFKGRFAFSLETSASTAYLQINNLRNEDMSTYFCARLGYGKFYVMDYWGQGTSVTVSS
VL: DVVMTQTPLSLPVSLGDQASISCRSSQSLVHSNGNTYLHWYLQKPGQSPKLLIYKVSNRFSGVPDRFSGSGSGTDFTLKISRVEAEDLGVYFCSQSTHVTWTFGGGTKLEIK
notes: also called FRG mAb; anti-Chi3l1-FRG

Reference: patent US20200354474A1 (BROWN UNIVERSITY, published 2020)
